One series concerns recombinant RfBGluc-1. Description: Inhibition of recombinant RfBGluc-1. It counts as biochemical, Reticulitermes flavipes. The note with it: 25° C., sodium acetate 0.1M pH 7, 2 mM p-nitrophenyl-B-D-glucopyranoside. The protocol:
Assays were conducted at 25° C. in sodium acetate buffer (0.1M, pH 7) using 2 mM p-nitrophenyl-B-D-glucopyranoside as the substrate.

Series [1] deals with R. flavipes worker gut esterases. Description: Gut esterase activity toward naphthyl esters, native PAGE and colorimetric microplate assays. The class given is biochemical, Reticulitermes flavipes. The note with it: foregut/salivary gland, midgut, hindgut. The protocol: Dissections, protein preparation, centrifugation protocols, and protein assays: All manipulations were performed on ice. For tissue localization studies, 25 termite worker guts were removed and dissected into the three regions of foregut/salivary gland, midgut and hindgut. Each gut region preparation was homogenized using a Tenbroeck glass homogenizer in potassium phosphate (0.1M, pH 7.6), and then centrifuged for 15 min at 14,000×g and 4° C. The supernatant was saved for assays and the pellet discarded.
Gut esterase activity toward naphthyl esters with varying carbon chain lengths: Activities toward different naphthyl ester substrates were investigated in different regions of the termite gut using native PAGE, as above, the results being shown in FIGS. 4 and 5. […].
. Differences in activity between α-naphthyl butyrate and acetate were not as evident on native PAGE as in activity assays. Thus, the majority/greatest diversity of gut esterase activity in R. flavipes is located in the midgut, and that activity is greatest toward the 3-carbon ester naphthyl propionate. […]

The next series deals with RfLac6. Briefly: Recombinant laccase Lac6 inhibition and enhancement, 2,6-DMP oxidation. As to conditions: 1 mM 2,6-DMP, pH 7.5. The class given is biochemical, Reticulitermes flavipes.
Substrate in series [2]: Oc1ccccc1O
Briefly: purified protein, by the assay type. As to conditions: other: RfLacA.

Substrate in series [3]: COc1cccc(OC)c1O
Briefly: purified protein, by the assay type. The note with it: other: RfLacA; substrate concentration providing ½ maximal activity.

Substrate in series [4]: COc1cc(/C=C/C(=O)O)cc(OC)c1O
Description: purified protein, by the assay type. As to conditions: other: RfLacA.

Substrate in series [5]: O=[N+]([O-])c1ccccc1O[C@@H]1OC[C@@H](O)[C@H](O)[C@H]1O
Description: Activity of recombinant RfBGluc-1 towards synthetic nitrophenol substrates, kinetic microplate assay. The note with it: other: synthetic NP substrates; read kinetically at 420 nm; mean ± standard error, 3-5 replicates; pH 6.0. The class given is biochemical, Reticulitermes flavipes. The protocol:
(§1) All initial characterization assays took place in 0.1 M sodium acetate buffer (pH 6) using 2 μL of recombinant enzyme preparation (=1.58 μg protein per assay) in a total reaction volume of 250 μL. Synthetic p-nitrophenol substrates (Table 1) were tested in direct kinetic assays using a microplate reader. Reactions were initiated by adding 248 μL assay buffer to 2 μL protein. Assays were read at 420 nm every 20 sec for 5 min to yield mean velocity data in mOD/min. Specific activity was determined with the p-nitrophenol extinction coefficient of 0.6605 mM^−1 cm^−1. All results were averaged from three independent replicates, each conducted in triplicate.

Substrate in series [6]: O=[N+]([O-])c1ccccc1O[C@@H]1O[C@H](CO)[C@@H](O)[C@H](O)[C@H]1O
The series is described as above. As to conditions: other: synthetic NP substrates; read kinetically at 420 nm; mean ± standard error, 3-5 replicates; pH 6.0. It counts as biochemical, Reticulitermes flavipes. How it is done: as §1

Substrate in series [7]: C[C@H]1O[C@@H](Oc2ccc([N+](=O)[O-])cc2)[C@H](O)[C@@H](O)[C@H]1O
The series is described as above. It counts as biochemical, Reticulitermes flavipes. The note with it: other: synthetic NP substrates; read kinetically at 420 nm; mean ± standard error, 3-5 replicates; pH 6.0. The protocol: as §1

Substrate in series [8]: O=[N+]([O-])c1ccc(O[C@@H]2O[C@H](CO)[C@@H](O[C@@H]3O[C@H](CO)[C@@H](O[C@@H]4O[C@H](CO)[C@@H](O)[C@H](O)[C@H]4O)[C@H](O)[C@H]3O)[C@H](O)[C@H]2O)cc1
Described as above. The class given is biochemical, Reticulitermes flavipes. The note with it: other: synthetic NP substrates; read kinetically at 420 nm; mean ± standard error, 3-5 replicates; pH 6.0. The protocol:
as §1

Substrate in series [9]: O=[N+]([O-])c1ccc(O[C@@H]2O[C@H](CO)[C@@H](O[C@@H]3O[C@H](CO)[C@@H](O)[C@H](O)[C@H]3O)[C@H](O)[C@H]2O)cc1
Described as above. The class given is biochemical, Reticulitermes flavipes. As to conditions: other: synthetic NP substrates; read kinetically at 420 nm; mean ± standard error, 3-5 replicates; pH 6.0. The protocol:
as §1

Substrate in series [10]: O=[N+]([O-])c1ccc(O[C@@H]2O[C@H](CO)[C@@H](O)[C@H](O)[C@H]2O)cc1
The description is as above. As to conditions: other: synthetic NP substrates; read kinetically at 420 nm; mean ± standard error, 3-5 replicates; pH 6.0. It counts as biochemical, Reticulitermes flavipes. How it is done:
as §1

Substrate in series [11]: O=[N+]([O-])c1ccc(O[C@@H]2O[C@H](CO)[C@@H](O[C@@H]3O[C@H](CO)[C@@H](O[C@@H]4O[C@H](CO)[C@@H](O[C@@H]5O[C@H](CO)[C@@H](O)[C@H](O)[C@H]5O)[C@H](O)[C@H]4O)[C@H](O)[C@H]3O)[C@H](O)[C@H]2O)cc1
Described as above. It counts as biochemical, Reticulitermes flavipes. The note with it: other: synthetic NP substrates; read kinetically at 420 nm; mean ± standard error, 3-5 replicates; pH 6.0. The protocol: as §1

Substrate in series [12]: OCc1ccccc1O[C@@H]1O[C@H](CO)[C@@H](O)[C@H](O)[C@H]1O
Description: Activity of recombinant RfBGluc-1 towards natural substrates, endpoint glucose detection assay. The class given is biochemical, Reticulitermes flavipes. As to conditions: other: natural substrates; endpoint at 505 nm, glucose detection reagent; mean ± standard error.

Substrate in series [13]: OC[C@H]1O[C@@H](O[C@H]2[C@H](O)[C@@H](CO)OC(O)[C@@H]2O)[C@H](O)[C@@H](O)[C@@H]1O
The description is as above. The class given is biochemical, Reticulitermes flavipes. As to conditions: other: natural substrates; endpoint at 505 nm, glucose detection reagent; mean ± standard error.

Where [14] appears, read: substrate concentration providing ½ maximal activity.

The text below walks through data of US8445240B2, “Termite enzymes and uses thereof for in vitro conversion of lignin-containing materials to fermentable products” (University of Florida Research Foundation, Inc., priority 2009, dated 2013).

“Also recorded” adds a separate entry of the source.

As for “fluoromethyl cellobiose [fluoromethyl cellobiose (FMCB)]”, in the series with recombinant RfBGluc-1, the “inhibition of recombinant RfBGluc-1” value is given as “concentration-dependent inhibition”.
Consider `CCC(=O)Oc1cccc2ccccc12` [α-naphthyl propionate], for which the “gut esterase activity toward the substrate” value in series [1] was “significantly greatest activity”.
Consider `CCCCCCCC(=O)Oc1cccc2ccccc12` [α-naphthyl caprylate], for which the “gut esterase activity toward the substrate” value in [1] is given as “lowest esterase staining activity”.
For `O=C(O)CS` [TGA, thioglycolic acid], the “concentration up to which RfLac6 activity is enhanced, inhibitory above” value with RfLac6 is reported as at most 10 mM.
As for `OC[C@@H]1[C@@H](O[C@@H]2O[C@H](CO)[C@@H](O)[C@H](O)[C@H]2O)[C@H](O)[C@@H](O)c2nccn21` [cellobioimidazole (CBI), cellobioimidazole], the “inhibition of recombinant RfBGluc-1” value in the series on recombinant RfBGluc-1 is recorded as “concentration-dependent inhibition”.
For `O=C(O)CN(CCN(CC(=O)O)CC(=O)O)CC(=O)O` [EDTA, ethylenediaminetetraacetate], the “effect on Cell-1 CMC endoglucanase activity” value in the series with Cell-1 (incubations over a 5-day period at about 25° C.) is listed as “slightly inhibitory”. Moreover, the “effect on Cell-1 temperature stability” value in the series with Cell-1 (pre-incubation at 60° C. and 70° C., 0-60 min) is recorded as “rapidly reduced temperature stability; also recorded: reduces temperature stability”. Further, in the series on RfLac6 (at concentrations as low as 0.01 mM), the “effect on RfLac6 activity” value is listed as “completely inhibited”.

B1: RfLacA (Reticulitermes flavipes) (protein)
chain: TSVLLNSYLQPNDDIDRNTYLLNAKSNNCARICNGTEAPKICYYQWTIENYVTLSEACDNCPLNVTACYNAQCITADGYERSILSVNRKLPGPSIEVCLRDRVIVDITNNMAGRTTSIHWHGVFQKGSQYMDGVPMVTQCTIHEGDTFRYDFIANNEGTHFWHSHDGLQKLDGVTGNLVVRVPKNFDPNGQLYDFDLPEHKIFISDWLHLSADDHFPGLRATNPGQDANSFLINGRGRTLIGTQSTNTPYAQINVQWGRRYRLRIVGSLCTVCPTQLTIDGHKITVIATDGNSVAPARVDSLIIYSGERYDVVLEATNTEGSYWIHLKGLATCVGSRVYQLGVLQYENTTTNKLHALTPDPGYDGFPQPASYRVLNPENASCSIGSTGLCVTQLANSDPVPRDILTQLPDINYLLQFGFETFDSRSFFKAYDRYFVSPFLELLSSTVNNISFVSPPSPLLSQRGDVPDDILCPTGADGLPQCPGGNSYCTCVHVIKIKLGALVQIILSDQSPKSDLNHPFHIHGHAFYVLGMGQYAAGQTAQDLLNSLKSNVSSVSPAPVLKDTVAVPSGGYAIIKFRPKNPGYWFLHCHFLYHVATGMSVVLQVGETSDYPPTPDGFPKCGSFTPPVNTN
A word on the Vmax: it is the top rate of the reaction or transport when substrate is in excess. Usually Km stands for the substrate concentration at which the rate is half of its maximum. Consider B1, for which the results for the Vmax in [2], in [3] and in series [4] were 15.4 µM/min, 0.26 µM/min and 0.247 µM/min, respectively. The Km was 17527 µM in [2] (setting [14]), 34888 µM in series [3] and 5022 µM in series [4] (setting [14]).

B2: recombinant RfBGluc-1 β-glucosidase (Reticulitermes flavipes) (protein)
chain: ADVDNETLFTFPEDFKLGAATASYQIEGGWNADGKGVNIWDTLTHERSQLVVDKSSGDVADDSYHLYKEDVKLLKNMGAQLYRFSISWARILPEGHDNKVNQAGIEYYNKLIDELLDNGIEPMVTMYHWDLPQTLQDLGGWPNRELAKYSENYARVLFQNFGDRVKLWLTFNEPLTFMDAYASETGMAPSIDTPGIGDYLAAHTVILAHANIYRMYEREFKEEQKGKVGIALNIHWCEPVTNSTKDVEACERYQQFNLGIYAHPIFSVEGDYPSVLKARVDANSVTEGYTTSRLPKFTTEEVDFIRGTHDFLGLNFYTAVTGADGVEGEPPSRYRDMGAITSQDPDWPESASSWLRVVPWGFRKELNWIANEYGNPPIYITENGFSDYGGLNDTDRVLYYTEHLKEMLKAIHIDEVNVVGYTAWSLVDNFEWLRGYTERFGIHEVNFNDPSRPRVPKESAKVLTEIFNTRRIPERFLD
Consider B2, for which the Km in series [5] was 7570 ± 1170 µM; in [6] it was 1580 ± 190 µM; in series [7] it was 900 ± 70 µM; in [8] it was 1630 ± 500 µM; in series [9], 1560 ± 40 µM; in series [10], 1660 ± 70 µM. Further, the Km in series [11] was determined as 590 ± 10 µM; in series [12], 34300 ± 14750 µM; in series [13], 630 ± 20 µM. The Vmax was 8.77 µmol/min/mg in series [5]; 4.2 µmol/min/mg in series [6]; 12.6 µmol/min/mg in series [7]; 22.6 µmol/min/mg in [8]; 13.8 µmol/min/mg in [9]; 22.9 µmol/min/mg in [10]. Further, the figures for the Vmax in series [11], in series [12] and in [13] were 16.6 µmol/min/mg, 278 µmol/min/mg and 218 µmol/min/mg, respectively.
